The text below walks through data of article PMC6087011, “The mechanism by which a distinguishing arabinofuranosidase can cope with internal di-substitutions in arabinoxylans” (Biotechnology for Biofuels, 2018).

The term Km denotes the substrate concentration at which the rate is half of its maximum. As a reminder, the kcat is the number of substrate molecules converted per active site and unit of time at saturation. As usually defined, the kcat/Km is the turnover number divided by the Michaelis constant. What is called stoichiometry N is a count of units in the complex or per binding partner.

For series [1], the system named is O=[N+]([O-])c1ccc(O[C@@H]2O[C@@H](CO)[C@H](O)[C@H]2O)cc1. Nature of the series: purified protein. The settings on record: pH 5.5 McIlvaine buffer, 50 °C.
Series [2] addresses XacAbf51, GH51 α-L-arabinofuranosidase from Xanthomonas axonopodis pv. citri (X. axonopodis pv. citri str. 306). Nature of the series: AUC.
The target is the same in series [3]. The series can be described thus: […]; 20 °C; […], pH 7.5; […].
For series [4] the target is unchanged. The series can be described thus: SAXS.
Substrate in series [5]: O=[N+]([O-])c1ccc(O[C@@H]2O[C@@H](CO)[C@H](O)[C@H]2O)cc1
The series can be described thus: colorimetric p-nitrophenolate release, A400. The series is classed as biochemical, Thermobacillus xylanilyticus. The settings on record: pH 5.5 McIlvaine buffer, 50 °C. The source says:
colorimetric p-nitrophenolate release, A400 on TxAbfD3

Turning to “XacAbf51 (Xanthomonas citri subsp. citri 306)”, in series [1], the Km was 0.19 ± 0.01 mM, the kcat worked out at 56.4 ± 0.8 s⁻¹ and the kcat/Km worked out at 300000 M⁻¹ s⁻¹.

On to “XacAbf51, GH51 α-L-arabinofuranosidase from Xanthomonas axonopodis pv. citri (enzyme)”, for which the stoichiometry N in series [2], in series [3] and in series [4] was 3 in each case.

B1: TxAbfD3 (Thermobacillus xylanilyticus) (protein)
chain: MNVASRVVVNADRVKGTINRNIYGHFSEHLGRCIYEGLWVGEDSPIPNTNGIRNDVLEALKQMKIPVLRWPGGCFADEYHWKDGVGPREKRKRMVNTHWGGVIENNHFGTHEFMMLCELLGCEPYISGNVGSGTVQEMSEWVEYITFDGESPMANWRRENGREKPWRIKYWGVGNENWGCGGNMRAEYYADLYRQFQTYLRNYGDNKLHKIACGANTADYHWTEVLMKQAAPFMHGLSLHYYTVPGPWEKKGPATGFTTDEWWVTLKKALFMDRLVTKHSAIMDVYDPDKRIDLIVDEWGTWYDVEPGTNPGFLYQQNSIRDALVAGATLHIFHRHCDRVRMANIAQLVNVLQSVILTEGERMLLTPTYHVFNMFKVHQDAELLDTWESVERTGPEGELPKVSVSASRAADGKIHISLCNLDFETGASVDIELRGLNGGVSATGTTLTSGRIDGHNTFDEPERVKPAPFRDFKLEGGHLNASLPPMSVTVLELTAG
As for B1, in series [5], the Km was 0.52 ± 0.06 mM, the kcat came to 154 ± 4.2 s⁻¹ and the kcat/Km is 300000 M⁻¹ s⁻¹.
